In PMC10338342:
Each block holds one substance with its values, some of them ahead of it.

Legend:
[1] = system: MYC bHLH-LZ;MAX bHLH-LZ (human;human), P01106-1+P61244; assay: SeEN-seq (EMSA + NGS); conditions: 62.5 nM TF; EMSA/SeEN-seq: 20 mM Tris-HCl pH 7.5, 75 mM NaCl, 10 mM KCl, 1 mM MgCl2, 0.1 mg/ml BSA, 1 mM DTT, room temp ~1 h; TR-FRET: 20 mM Tris-HCl pH 7.5, 75 or 125 mM …
[2] = system: MYC bHLH-LZ;MAX bHLH-LZ (human;human), P01106-1+P61244; assay: TR-FRET; conditions: about threefold vs without, EMSA/SeEN-seq: 20 mM Tris-HCl pH 7.5, 75 mM NaCl, 10 mM KCl, 1 mM MgCl2, 0.1 mg/ml BSA, 1 mM DTT, room temp ~1 h, TR-FRET: 20 mM Tris-HCl pH 7.5, 75 or 125 mM …
[3] = target: nucleosome core particle: human histone octamer (H2A, H2B, H3.1, H4) wrapped by DNA, P04908;P06899;P68431;P62805; assay: smTIRF colocalization single-molecule imaging; conditions: substrate NCP
[4] = target: nucleosome core particle with H2B(T122C–biotin): H2A–H2B(T122C–biotin)–H3.1–H4 octamer wrapped by DNA (human) (UniProt P04908); assay: FRET or BRET; LANCE TR-FRET forward titration: increasing His–MYC-MAX added to H2B(T122C)-biotinylated NCP SHL+5.1 with Eu-streptavidin, in the presence or absence of OCT4
[5] = target: CLOCK bHLH PAS-AB;BMAL1 bHLH PAS-AB WT (mouse;mouse) (UniProt O08785+Q9WTL8); assay: mass photometry; conditions: EMSA/SeEN-seq: 20 mM Tris-HCl pH 7.5, 75 mM NaCl, 10 mM KCl, 1 mM MgCl2, 0.1 mg/ml BSA, 1 mM DTT, room temp ~1 h, TR-FRET: 20 mM Tris-HCl pH 7.5, 75 or 125 mM …
[6] = target: nucleosome core particle: human histone octamer (H2A, H2B, H3.1, H4) wrapped by DNA (human) (UniProt P04908); assay: mass photometry; CLOCK-BMAL1 with NCP SHL+5.8 (single E-box), 10 and 60 nM (1:6), 20 mM Tris-HCl pH 7.5, 100 mM KCl, 0.5 mM TCEP
[7] = target: nucleosome core particle: human histone octamer (H2A, H2B, H3.1, H4) wrapped by DNA (human) (UniProt P04908); assay: mass photometry; CLOCK-BMAL1 with NCP SHL−6.2, 10 and 60 nM (1:6), 20 mM Tris-HCl pH 7.5, 100 mM KCl, 0.5 mM TCEP, 30 min room temperature
[8] = target: nucleosome core particle: human histone octamer (H2A, H2B, H3.1, H4) wrapped by DNA (human) (UniProt P04908); assay: mass photometry; CLOCK-BMAL1 with NCP SHL+5.8-tandem (2 E-boxes with 7-bp spacing in a 601 sequence), 10 and 60 nM (1:6), 20 mM Tris-HCl pH 7.5, 100 mM KCl, 0.5 mM TCEP

MYC bHLH-LZ;MAX bHLH-LZ (human;human), P01106-1+P61244, sequence (P01106 366-452, chain 1 of 2): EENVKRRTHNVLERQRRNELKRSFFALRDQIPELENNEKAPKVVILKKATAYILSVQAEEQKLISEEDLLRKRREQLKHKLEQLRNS
MYC bHLH-LZ;MAX bHLH-LZ (human;human), P01106-1+P61244, sequence (P61244 22-102, chain 2 of 2): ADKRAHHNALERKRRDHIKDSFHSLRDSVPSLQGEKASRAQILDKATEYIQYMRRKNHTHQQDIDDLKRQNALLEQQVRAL

Substance: SeEN-seq NCP, E-box at SHL-6.2
binding signal (log2 enrichment) [1]: 2.2

Substance: NCP SHL+5.1 for TR-FRET
binding signal (fold tighter with OCT4) [2]: 3

other: dwell time τoff,1 [3]: 0.6 s
Substance: wild-type MYC-MAX–Spy, labelled with JF549–SpyCatcher (from UniProt P61244) MYC:S405Y; MYC:A408R

Substance: SeEN-seq NCP, E-box at SHL+5.8
binding signal (log2 enrichment) [1]: 3.5

fold strengthening of the binding isotherm in the presence of OCT4 [4]: 3 fold
Substance: MYC-MAX bHLH LZ heterodimer (from UniProt P61244 22-102) (complex)

other: dwell time τoff,1 [3]: 0.86 s | other: dwell time τoff,2 [3]: 22 s
Substance: wild-type MYC-MAX–Spy, labelled with JF549–SpyCatcher (from UniProt P61244) MAX:Y73A; MAX:R76A

Substance: NCP SHL+5.8-tandem
binding signal ([5]; tandem E-box): 51 % bound

Substance: NCP SHL+5.8 (W601)
binding signal ([5]; 20 nM NCP, single E-box): 19 % bound

N (minority species) [6]: 2 | percent bound (total amount of CLOCK-BMAL1 bound, single E-box) [6]: 19% | stoichiometry N [7]: 1 | percent bound (total amount of CLOCK-BMAL1 bound, tandem E-boxes) [8]: 51%
Substance: CLOCK-BMAL1 bHLH PAS-AB heterodimer (from UniProt O08785 26-395; Q9WTL8 62-441) (complex)
